Reference: patent US20220227830A1, “QD DOSING OF GIP RECEPTOR AGONIST PEPTIDE COMPOUNDS AND USES THEREOF” (Takeda Pharmaceutical Company Limited, priority 2020, published 2022)
Starred links: 1 amine or outer side, 2 acyl side, 3 side chain; linkers in the order of their positions; H or OH if unused. Non-standard residues stand in square brackets, D forms with d. Groups on a side chain read outwards from the residue. No end group written: not given here. *: point of attachment. C16 diacid = O=C(O)CCCCCCCCCCCCCCC(=O)*; C15 diacid = O=C(O)CCCCCCCCCCCCCC(=O)*; γGlu = O=C(O)[C@H](CCC(=O)[*:2])N[*:1]; NMeY = CN[C@@H](Cc1ccc(O)cc1)C(=O)O; AEEA = NCCOCCOCC(=O)O; Aib = CC(C)(N)C(=O)O

T1: full-length human GIPR with an N-terminal FLAG tag (human, UniProt P48546 22-466)
T1 sequence (looked up): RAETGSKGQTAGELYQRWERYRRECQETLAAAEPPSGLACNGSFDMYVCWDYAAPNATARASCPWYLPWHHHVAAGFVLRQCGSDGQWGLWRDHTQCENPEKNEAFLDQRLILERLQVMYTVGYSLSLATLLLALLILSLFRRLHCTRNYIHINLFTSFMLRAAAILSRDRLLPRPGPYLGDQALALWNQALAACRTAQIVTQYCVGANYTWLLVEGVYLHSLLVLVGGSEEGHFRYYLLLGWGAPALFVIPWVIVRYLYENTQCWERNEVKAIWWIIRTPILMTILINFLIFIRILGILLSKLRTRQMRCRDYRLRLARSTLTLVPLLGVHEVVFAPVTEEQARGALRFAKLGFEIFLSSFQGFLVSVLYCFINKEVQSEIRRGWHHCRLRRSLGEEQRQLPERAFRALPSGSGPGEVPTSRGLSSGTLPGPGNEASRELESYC


Tests used:
[1] = target: T1, full-length human GIPR with an …; assay: cell-based or functional assay
[2] = target: full-length human GLP-1R with an N-terminal FLAG tag (human, UniProt P43220 24-463); assay: cell-based or functional assay

Binder	Human GIPR cAMP, HEK293T EC50 [1] [nM]	Human GLP1R cAMP HEK293T EC50 [2] [nM]
[NMeY][Aib]EGTFISDYSIALDR[Aib]AQ[Aib]NFVNWLLAK([AEEA-AEEA-γGlu-γGlu-C15 diacid])RPSSGAPPPS-NH2 (N-terminus assumed; SMILES CC[C@H](C)[C@H](NC(=O)[C@H](CO)NC(=O)[C@H](Cc1ccc(O)cc1)NC(=O)[C@H](CC(=O)O)NC(=O)[C@H](CO)NC(=O)[C@@H](NC(=O)[C@H](Cc1ccccc1)NC(=O)[C@@H](NC(=O)CNC(=O)[C@H](CCC(=O)O)NC(=O)C(C)(C)NC(=O)[C@H](Cc1ccc(O)cc1)NC)[C@@H](C)O)[C@@H](C)CC)C(=O)N[C@@H](C)C(=O)N[C@@H](CC(C)C)C(=O)N[C@@H](CC(=O)O)C(=O)N[C@@H](CCCNC(=N)N)C(=O)NC(C)(C)C(=O)N[C@@H](C)C(=O)N[C@@H](CCC(N)=O)C(=O)NC(C)(C)C(=O)N[C@@H](CC(N)=O)C(=O)N[C@@H](Cc1ccccc1)C(=O)N[C@H](C(=O)N[C@@H](CC(N)=O)C(=O)N[C@@H](Cc1c[nH]c2ccccc12)C(=O)N[C@@H](CC(C)C)C(=O)N[C@@H](CC(C)C)C(=O)N[C@@H](C)C(=O)N[C@@H](CCCCNC(=O)COCCOCCNC(=O)COCCOCCNC(=O)CC[C@H](NC(=O)CC[C@H](NC(=O)CCCCCCCCCCCCCC(=O)O)C(=O)O)C(=O)O)C(=O)N[C@@H](CCCNC(=N)N)C(=O)N1CCC[C@H]1C(=O)N[C@@H](CO)C(=O)N[C@@H](CO)C(=O)NCC(=O)N[C@@H](C)C(=O)N1CCC[C@H]1C(=O)N1CCC[C@H]1C(=O)N1CCC[C@H]1C(=O)N[C@@H](CO)C(N)=O)C(C)C) [Compound 88]	0.0006	166
[NMeY][Aib]EGTFISDYSI[Aib]K([AEEA-γGlu-γGlu-C15 diacid])DR[Aib]AQ[Aib]NFVNWLLAQRPSSGAPPPS-NH2 (N-terminus assumed; SMILES CC[C@H](C)[C@H](NC(=O)[C@H](Cc1ccccc1)NC(=O)[C@@H](NC(=O)CNC(=O)[C@H](CCC(=O)O)NC(=O)C(C)(C)NC(=O)[C@H](Cc1ccc(O)cc1)NC)[C@@H](C)O)C(=O)N[C@@H](CO)C(=O)N[C@@H](CC(=O)O)C(=O)N[C@@H](Cc1ccc(O)cc1)C(=O)N[C@@H](CO)C(=O)N[C@H](C(=O)NC(C)(C)C(=O)N[C@@H](CCCCNC(=O)COCCOCCNC(=O)CC[C@H](NC(=O)CC[C@H](NC(=O)CCCCCCCCCCCCCC(=O)O)C(=O)O)C(=O)O)C(=O)N[C@@H](CC(=O)O)C(=O)N[C@@H](CCCNC(=N)N)C(=O)NC(C)(C)C(=O)N[C@@H](C)C(=O)N[C@@H](CCC(N)=O)C(=O)NC(C)(C)C(=O)N[C@@H](CC(N)=O)C(=O)N[C@@H](Cc1ccccc1)C(=O)N[C@H](C(=O)N[C@@H](CC(N)=O)C(=O)N[C@@H](Cc1c[nH]c2ccccc12)C(=O)N[C@@H](CC(C)C)C(=O)N[C@@H](CC(C)C)C(=O)N[C@@H](C)C(=O)N[C@@H](CCC(N)=O)C(=O)N[C@@H](CCCNC(=N)N)C(=O)N1CCC[C@H]1C(=O)N[C@@H](CO)C(=O)N[C@@H](CO)C(=O)NCC(=O)N[C@@H](C)C(=O)N1CCC[C@H]1C(=O)N1CCC[C@H]1C(=O)N1CCC[C@H]1C(=O)N[C@@H](CO)C(N)=O)C(C)C)[C@@H](C)CC) [Compound 94]	0.0006	501
[NMeY][Aib]EGTFISDYSIALDR[Aib]AQ[Aib]K([AEEA-AEEA-γGlu-γGlu-C15 diacid])FVNWLLAQSPSSGAPPPS-NH2 (N-terminus assumed; SMILES CC[C@H](C)[C@H](NC(=O)[C@H](CO)NC(=O)[C@H](Cc1ccc(O)cc1)NC(=O)[C@H](CC(=O)O)NC(=O)[C@H](CO)NC(=O)[C@@H](NC(=O)[C@H](Cc1ccccc1)NC(=O)[C@@H](NC(=O)CNC(=O)[C@H](CCC(=O)O)NC(=O)C(C)(C)NC(=O)[C@H](Cc1ccc(O)cc1)NC)[C@@H](C)O)[C@@H](C)CC)C(=O)N[C@@H](C)C(=O)N[C@@H](CC(C)C)C(=O)N[C@@H](CC(=O)O)C(=O)N[C@@H](CCCNC(=N)N)C(=O)NC(C)(C)C(=O)N[C@@H](C)C(=O)N[C@@H](CCC(N)=O)C(=O)NC(C)(C)C(=O)N[C@@H](CCCCNC(=O)COCCOCCNC(=O)COCCOCCNC(=O)CC[C@H](NC(=O)CC[C@H](NC(=O)CCCCCCCCCCCCCC(=O)O)C(=O)O)C(=O)O)C(=O)N[C@@H](Cc1ccccc1)C(=O)N[C@H](C(=O)N[C@@H](CC(N)=O)C(=O)N[C@@H](Cc1c[nH]c2ccccc12)C(=O)N[C@@H](CC(C)C)C(=O)N[C@@H](CC(C)C)C(=O)N[C@@H](C)C(=O)N[C@@H](CCC(N)=O)C(=O)N[C@@H](CO)C(=O)N1CCC[C@H]1C(=O)N[C@@H](CO)C(=O)N[C@@H](CO)C(=O)NCC(=O)N[C@@H](C)C(=O)N1CCC[C@H]1C(=O)N1CCC[C@H]1C(=O)N1CCC[C@H]1C(=O)N[C@@H](CO)C(N)=O)C(C)C) [Compound 93]	0.0002	490
[NMeY][Aib]EGTFISDYSI[Aib]K([GGEEE-C15 diacid])DR[Aib]AQ[Aib]NFVNWLLAQRPSSGAPPPS-NH2 [Compound 95]	0.0002	537
[NMeY][Aib]EGTFISDYSIALDR[Aib]AQ[Aib]K([AEEA-AEEA-γGlu-C15 diacid])FVNWLLAQSPSSGAPPPS-NH2 (N-terminus assumed; SMILES CC[C@H](C)[C@H](NC(=O)[C@H](CO)NC(=O)[C@H](Cc1ccc(O)cc1)NC(=O)[C@H](CC(=O)O)NC(=O)[C@H](CO)NC(=O)[C@@H](NC(=O)[C@H](Cc1ccccc1)NC(=O)[C@@H](NC(=O)CNC(=O)[C@H](CCC(=O)O)NC(=O)C(C)(C)NC(=O)[C@H](Cc1ccc(O)cc1)NC)[C@@H](C)O)[C@@H](C)CC)C(=O)N[C@@H](C)C(=O)N[C@@H](CC(C)C)C(=O)N[C@@H](CC(=O)O)C(=O)N[C@@H](CCCNC(=N)N)C(=O)NC(C)(C)C(=O)N[C@@H](C)C(=O)N[C@@H](CCC(N)=O)C(=O)NC(C)(C)C(=O)N[C@@H](CCCCNC(=O)COCCOCCNC(=O)COCCOCCNC(=O)CC[C@H](NC(=O)CCCCCCCCCCCCCC(=O)O)C(=O)O)C(=O)N[C@@H](Cc1ccccc1)C(=O)N[C@H](C(=O)N[C@@H](CC(N)=O)C(=O)N[C@@H](Cc1c[nH]c2ccccc12)C(=O)N[C@@H](CC(C)C)C(=O)N[C@@H](CC(C)C)C(=O)N[C@@H](C)C(=O)N[C@@H](CCC(N)=O)C(=O)N[C@@H](CO)C(=O)N1CCC[C@H]1C(=O)N[C@@H](CO)C(=O)N[C@@H](CO)C(=O)NCC(=O)N[C@@H](C)C(=O)N1CCC[C@H]1C(=O)N1CCC[C@H]1C(=O)N1CCC[C@H]1C(=O)N[C@@H](CO)C(N)=O)C(C)C) [Compound 92]	0.0013	74.1
[NMeY][Aib]EGTFISDYSIALDRIK([AEEA-AEEA-γGlu-C16 diacid])Q[Aib]NFVNWLLAQK [Compound 8]	0.0001	100
[NMeY][Aib]EGTFISDYSIALDR[Aib]AQ[Aib]KFVNWLLAQS-NH2 (not fully specified (residue 21)) [Compound 85]	0.0009	63.1
[NMeY][Aib]EGTFISDYSIALDR[Aib]AQ[Aib]KFVNWLLAQRGGGGS-NH2 (not fully specified (residue 21)) [Compound 96]	0.0004	89.1
[NMeY][Aib]EGTFISDYSIAK([G5-γGlu-C15 diacid])DR[Aib]AQ[Aib]DFVNWLLAQRGGGGS-NH2 [Compound 97]	0.0002	490
[NMeY][Aib]EGTFISDYSIALDR[Aib]AQ[Aib]NFVNWLLAQK([AEEA-AEEA-γGlu-γGlu-C15 diacid])-NH2 (N-terminus assumed; SMILES CC[C@H](C)[C@H](NC(=O)[C@H](CO)NC(=O)[C@H](Cc1ccc(O)cc1)NC(=O)[C@H](CC(=O)O)NC(=O)[C@H](CO)NC(=O)[C@@H](NC(=O)[C@H](Cc1ccccc1)NC(=O)[C@@H](NC(=O)CNC(=O)[C@H](CCC(=O)O)NC(=O)C(C)(C)NC(=O)[C@H](Cc1ccc(O)cc1)NC)[C@@H](C)O)[C@@H](C)CC)C(=O)N[C@@H](C)C(=O)N[C@@H](CC(C)C)C(=O)N[C@@H](CC(=O)O)C(=O)N[C@@H](CCCNC(=N)N)C(=O)NC(C)(C)C(=O)N[C@@H](C)C(=O)N[C@@H](CCC(N)=O)C(=O)NC(C)(C)C(=O)N[C@@H](CC(N)=O)C(=O)N[C@@H](Cc1ccccc1)C(=O)N[C@H](C(=O)N[C@@H](CC(N)=O)C(=O)N[C@@H](Cc1c[nH]c2ccccc12)C(=O)N[C@@H](CC(C)C)C(=O)N[C@@H](CC(C)C)C(=O)N[C@@H](C)C(=O)N[C@@H](CCC(N)=O)C(=O)N[C@@H](CCCCNC(=O)COCCOCCNC(=O)COCCOCCNC(=O)CC[C@H](NC(=O)CC[C@H](NC(=O)CCCCCCCCCCCCCC(=O)O)C(=O)O)C(=O)O)C(N)=O)C(C)C) [Compound 91]	0.0008	126
